Source: IntAct's records for PubMed 21368759

B1: Adapter protein MecA 1 (Bacillus subtilis), P37958 (parent)
chain: MEIERINEHTVKFYMSYGDIEDRGFDREEIWYNRERSEELFWEVMDEVHEEEEFAVEGPLWIQVQALDKGLEIIVTKAQLSKDGQKLELPIPEDKKQEPASEDLDALLDDFQKEEQAVNQEEKEQKLQFVLRFGDFEDVISLSKLNVNGSKTTLYSFENRYYLYVDFCNMTDEEVENQLSILLEYATESSISIHRLEEYGKLIISEHALETIKKHFAS
partner: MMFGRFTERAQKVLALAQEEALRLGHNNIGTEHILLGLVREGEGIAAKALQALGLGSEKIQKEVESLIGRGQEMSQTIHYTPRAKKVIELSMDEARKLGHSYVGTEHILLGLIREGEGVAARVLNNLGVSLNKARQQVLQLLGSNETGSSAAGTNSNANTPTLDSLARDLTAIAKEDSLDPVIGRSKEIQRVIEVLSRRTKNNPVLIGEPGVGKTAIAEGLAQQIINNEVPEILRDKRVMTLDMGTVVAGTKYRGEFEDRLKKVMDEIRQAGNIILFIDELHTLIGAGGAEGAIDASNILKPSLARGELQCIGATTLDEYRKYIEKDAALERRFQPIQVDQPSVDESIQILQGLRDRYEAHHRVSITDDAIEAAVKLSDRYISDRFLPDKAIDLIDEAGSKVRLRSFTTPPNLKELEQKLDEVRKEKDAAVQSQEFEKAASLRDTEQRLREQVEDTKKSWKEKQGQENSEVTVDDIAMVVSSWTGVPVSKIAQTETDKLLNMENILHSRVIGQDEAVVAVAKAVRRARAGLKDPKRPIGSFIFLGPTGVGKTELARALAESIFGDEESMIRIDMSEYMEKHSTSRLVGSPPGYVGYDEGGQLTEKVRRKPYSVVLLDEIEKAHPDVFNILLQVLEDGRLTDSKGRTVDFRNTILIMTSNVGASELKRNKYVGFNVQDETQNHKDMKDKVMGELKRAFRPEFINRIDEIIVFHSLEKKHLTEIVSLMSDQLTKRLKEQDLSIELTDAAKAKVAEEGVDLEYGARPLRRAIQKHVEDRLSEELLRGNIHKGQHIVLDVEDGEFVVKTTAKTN

Variants of: B1
Settings: with clpc_bacsu clpC

| Variant | effect of a mutation on the interaction |
| --- | --- |
| MEIERINEHTVKFYMSYGDIEDRGFDREEIWYNRERSEELFWEVMDEVHEEEEFAVEGPLWIQVQALDKGLEIIVTKAQLSKDGQKLELPIPEDKKQEPASEDLDALLDDFQKEEQAVNQEEKEQKLQFVLRFGDFEDVISLSKLNVNGSKTTLYSFENRYYLYVDFCNMTDEEVENQLSILLRYATESSISIHRLEEYGKLIISEHALETIKKHFAS [E184R] | disrupting interaction |
